The data set in a line: self-splicing fitness, log relative to wild type (ln ratio); higher = more splicing; Tetrahymena group I intron in knt gene, E. coli kanamycin selection, DiMSum; sequences stand for … in CUCUCU…GGAGGGAAAAGUUAUCAGGCAUGCACCUGGUAGCUAGUCUUUAAACCAAUAGAUUGCAUCGGUUUAAAAGGCAAGACCGUCAAAUUGCGGGAAAGGGGUCAACAGCCGUUCAGUACCAAGUCUCAGGGGAAACUUUGAGAUGGCCUUGCAAAGGGUAUGGUAAUAAGCUGACGGACAUGGUCCUAACCACGCAGCCAAGUCCUAAGUCAACAGAUCUUCUGUUGAUAUGGAUGCAGUUCACAGACUAAAUGUCGGUCGGGGAAGAUGUAUUCUUCUCAUAAGAUAUAGUCGGACCUCUCCUUAAUGGGAGCUAGCGGAUGAAGUGAUGCAACACUGGAGCCGCUGGGAACUAAUUUGUAUGCGAAAGUAUAUUGAUUAGUUUUGGAGUACUCGUGGUCG
The method, boiled down:
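Library with all eight P1ex-region intron nucleotides randomised, intron inside the knt kanamycin-resistance gene on pET-22b(+), in E. coli BL21(DE3). Cells grew overnight at 37°C or 30°C on LB agar with or without 25 μg/mL kanamycin (plus 100 μg/mL carbenicillin, 50 μM IPTG, 0.2% rhamnose), in six replicate transformations. Pooled colonies were amplicon-sequenced on Illumina HiSeq 2500. DiMSum fitness is the error-weighted combination of wild-type-normalised replicate fold changes, kanamycin versus none.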

± gives the uncertainty stated by the source.

For GGCCAGCAAUAUUACGGCCC, under “30 °C”, the “self-splicing fitness (ln)” value was -2.83 ± 0.42.
Turning to CAUCAGCAAUAUUACGAUGG, the “self-splicing fitness (ln)” value by setting is: (30 °C) -0.479 ± 0.057; (37 °C) -0.173 ± 0.074.
Turning to CUAAAGCAAUAUUACGUGAG, the “self-splicing fitness (ln)” value was -0.0713 ± 0.047 (30 °C) and -0.2 ± 0.066 (37 °C).
Turning to AACAAGCAAUAUUACGCGUU, the “self-splicing fitness (ln)” value by setting is: (30 °C) -3.91 ± 0.2; (37 °C) -3.32 ± 0.18.
For ACGCAGCAAUAUUACGUUGG the same measures were -2.94 ± 0.082 and -1.91 ± 0.096.
For ACCCAGCAAUAUUACGUGAU the same measures were -0.402 ± 0.034 and 0.181 ± 0.048.
Consider AAGUAGCAAUAUUACGGCUC, for which the “self-splicing fitness (ln)” value by setting is: (30 °C) -0.15 ± 0.12; (37 °C) 0.32 ± 0.15.
The corresponding values for AUUCAGCAAUAUUACGUAAA are -0.737 ± 0.08 and -0.148 ± 0.12.
The corresponding values for CGCAAGCAAUAUUACGCUCG are -3.87 ± 0.32 and -2.95 ± 0.29.
Consider UUCAAGCAAUAUUACGUGCA, for which the “self-splicing fitness (ln)” value (30 °C) is -0.545 ± 0.047 and the “self-splicing fitness (ln)” value (37 °C) is -0.00601 ± 0.065.
The corresponding values for CGUUAGCAAUAUUACGCGCA are -1.01 ± 0.29 and -0.131 ± 0.47.
For the sequence CUCCAGCAAUAUUACGCAUA, the “self-splicing fitness (ln)” value (37 °C) was -2.21 ± 0.29.
Regarding AGCUAGCAAUAUUACGUUAU, the “self-splicing fitness (ln)” value by setting is: (30 °C) -4.39 ± 0.32; (37 °C) -2.19 ± 0.17.
The corresponding values for GAAAAGCAAUAUUACGCUGG are -2.57 ± 0.2 and -1.24 ± 0.25.
The corresponding values for GAUUAGCAAUAUUACGGCAU are -0.835 ± 0.11 and 0.24 ± 0.12.
Turning to AGAAAGCAAUAUUACGGUCC, the “self-splicing fitness (ln)” value runs as follows: (30 °C) -0.555 ± 0.12; (37 °C) 0.317 ± 0.16.
For GCUAAGCAAUAUUACGACCG the same measures were -0.349 ± 0.17 and 0.0102 ± 0.24.
For GGGUAGCAAUAUUACGCCUG the same measures were -1.42 ± 0.12 and -0.219 ± 0.14.
The corresponding values for AAUGAGCAAUAUUACGGAUU are -2.38 ± 0.15 and -1.04 ± 0.16.
As for ACACAGCAAUAUUACGGGCA, the “self-splicing fitness (ln)” value runs as follows: (30 °C) -1.48 ± 0.078; (37 °C) -0.0778 ± 0.091.
For UCUAAGCAAUAUUACGCCCG the same measures were -0.879 ± 0.21 and 0.0184 ± 0.38.
For ACCGAGCAAUAUUACGUACC the same measures were -3.88 ± 0.33 and -2.37 ± 0.44.
The corresponding values for UAUUAGCAAUAUUACGAAUU are -2.51 ± 0.2 and -0.596 ± 0.21.
Regarding AAUGAGCAAUAUUACGCGGA, the “self-splicing fitness (ln)” value reads like this: (30 °C) -2.88 ± 0.21; (37 °C) -2.13 ± 0.21.
The corresponding values for CAAGAGCAAUAUUACGCGCG are -1.47 ± 0.093 and -0.891 ± 0.13.
Consider CUGGAGCAAUAUUACGAUGC, for which, under “37 °C”, the “self-splicing fitness (ln)” value is -1.84 ± 0.4.
For the sequence GUGAAGCAAUAUUACGGGGG, the “self-splicing fitness (ln)” value reads like this: (30 °C) -2.67 ± 0.14; (37 °C) -3.08 ± 0.14.
For GCCUAGCAAUAUUACGCAUC the same measures were -0.219 ± 0.066 and 0.571 ± 0.091.
Consider CAUAAGCAAUAUUACGCAUC, for which the “self-splicing fitness (ln)” value (37 °C) is -3.39 ± 0.43.
As for ACAUAGCAAUAUUACGGACG, the “self-splicing fitness (ln)” value reads like this: (30 °C) -1.32 ± 0.1; (37 °C) -0.653 ± 0.14.
On to CACCAGCAAUAUUACGUCCG, for which the “self-splicing fitness (ln)” value (30 °C) is -0.0929 ± 0.051 and the “self-splicing fitness (ln)” value (37 °C) was 0.19 ± 0.071.
On to UUAAAGCAAUAUUACGACGG, for which the “self-splicing fitness (ln)” value (30 °C) was -0.186 ± 0.091 and the “self-splicing fitness (ln)” value (37 °C) was 0.75 ± 0.15.
In the case of AAUUAGCAAUAUUACGUUGG, the “self-splicing fitness (ln)” value is, setting by setting: (30 °C) -3.34 ± 0.17; (37 °C) -2.56 ± 0.16.
As for CAUAAGCAAUAUUACGCGCG, the “self-splicing fitness (ln)” value is -0.536 ± 0.14 (30 °C) and 0.0409 ± 0.15 (37 °C).
With CAUAAGCAAUAUUACGCAUG, the “self-splicing fitness (ln)” value runs as follows: (30 °C) -1.55 ± 0.12; (37 °C) -2.27 ± 0.23.
For CGCGAGCAAUAUUACGCAGC the same measures were -3.62 ± 0.46 and -1.99 ± 0.34.
The corresponding values for AGCUAGCAAUAUUACGGCCC are -0.559 ± 0.2 and 0.0329 ± 0.35.
The corresponding values for CACCAGCAAUAUUACGUAUC are -3.55 ± 0.14 and -2.99 ± 0.19.
Regarding CGUAAGCAAUAUUACGCGUC, the “self-splicing fitness (ln)” value was -3.79 ± 0.21 (30 °C) and -2.87 ± 0.19 (37 °C).
As to GGCGAGCAAUAUUACGGACA, the “self-splicing fitness (ln)” value reads like this: (30 °C) -0.299 ± 0.23; (37 °C) -0.824 ± 0.28.
The corresponding values for AAUAAGCAAUAUUACGUCAA are -2.29 ± 0.14 and -2.06 ± 0.12.
For UUCUAGCAAUAUUACGUUUA, the “self-splicing fitness (ln)” value runs as follows: (30 °C) -1.43 ± 0.16; (37 °C) -1.45 ± 0.12.
Consider GUCAAGCAAUAUUACGUAUC, for which the “self-splicing fitness (ln)” value (30 °C) is -2.71 ± 0.2 and the “self-splicing fitness (ln)” value (37 °C) was -0.284 ± 0.16.
For CCACAGCAAUAUUACGUAGU the same measures were -3.22 ± 0.14 and -2.94 ± 0.19.
For CAGAAGCAAUAUUACGUACU the same measures were -1.83 ± 0.13 and -1.22 ± 0.12.
On to CGACAGCAAUAUUACGAGAA, for which the “self-splicing fitness (ln)” value (37 °C) is -2.41 ± 0.23.
Regarding CUGCAGCAAUAUUACGGUGG, the “self-splicing fitness (ln)” value runs as follows: (30 °C) -3.9 ± 0.19; (37 °C) -3.09 ± 0.24.
The corresponding values for AUAUAGCAAUAUUACGAGAA are -1.72 ± 0.34 and -0.73 ± 0.36.
For CAACAGCAAUAUUACGCCCA the same measures were -0.825 ± 0.097 and -1.04 ± 0.1.
The corresponding values for UUUGAGCAAUAUUACGCUUA are -3.38 ± 0.36 and -2.07 ± 0.23.
Regarding CUGAAGCAAUAUUACGCUCU, the “self-splicing fitness (ln)” value reads like this: (30 °C) -3.29 ± 0.25; (37 °C) -3.3 ± 0.47.
For GUGGAGCAAUAUUACGGCAU the same measures were -2.46 ± 0.13 and -2.62 ± 0.17.
Turning to AAAAAGCAAUAUUACGAAAU, the “self-splicing fitness (ln)” value by setting is: (30 °C) -1.91 ± 0.091; (37 °C) -1.01 ± 0.12.
For CGAGAGCAAUAUUACGAGCG the same measures were -0.966 ± 0.11 and -1.72 ± 0.18.
Take UGGUAGCAAUAUUACGGUCU: the “self-splicing fitness (ln)” value (30 °C) is -0.135 ± 0.21 and the “self-splicing fitness (ln)” value (37 °C) is -0.457 ± 0.33.
In the case of UGGUAGCAAUAUUACGAGAU, where the note is “37 °C”, the “self-splicing fitness (ln)” value is -1.76 ± 0.43.
Take AGUGAGCAAUAUUACGGUCG: the “self-splicing fitness (ln)” value is -3.55 ± 0.24 (30 °C) and -1.97 ± 0.18 (37 °C).
For GGCAAGCAAUAUUACGCAGU the same measures were -1.88 ± 0.12 and -1.43 ± 0.13.
For CAAAAGCAAUAUUACGGCUC the same measures were -1.56 ± 0.12 and 0.0316 ± 0.14.
The corresponding values for CAUCAGCAAUAUUACGGCAC are -3.89 ± 0.24 and -2.56 ± 0.24.
For the sequence CAGUAGCAAUAUUACGAUGG, the “self-splicing fitness (ln)” value was -0.609 ± 0.077 (30 °C) and -0.119 ± 0.11 (37 °C).
Turning to GCCGAGCAAUAUUACGAACC, the “self-splicing fitness (ln)” value was -0.807 ± 0.22 (30 °C) and 0.455 ± 0.41 (37 °C).
Turning to GAAGAGCAAUAUUACGUCCG, the “self-splicing fitness (ln)” value (30 °C) was -3.48 ± 0.39.
On to CCCCAGCAAUAUUACGCGCU, for which the “self-splicing fitness (ln)” value is, setting by setting: (30 °C) -3.31 ± 0.12; (37 °C) -2.45 ± 0.21.
For AUUGAGCAAUAUUACGGGGU the same measures were -3.33 ± 0.25 and -3.44 ± 0.27.
For GGUUAGCAAUAUUACGUGUU the same measures were -1.43 ± 0.096 and -0.323 ± 0.098.
For UUGAAGCAAUAUUACGGCAG the same measures were 0.393 ± 0.078 and -0.0313 ± 0.092.
UGGCAGCAAUAUUACGGGGG: the “self-splicing fitness (ln)” value is, setting by setting: (30 °C) -3.38 ± 0.23; (37 °C) -2.84 ± 0.29.
For AAAGAGCAAUAUUACGAGUG the same measures were -3.95 ± 0.19 and -2.38 ± 0.16.
The corresponding values for AAACAGCAAUAUUACGUCGA are -0.86 ± 0.065 and -0.774 ± 0.073.
The corresponding values for AUAAAGCAAUAUUACGUGAA are -1.39 ± 0.094 and -0.724 ± 0.12.
With CCCGAGCAAUAUUACGCGGG, the “self-splicing fitness (ln)” value (30 °C) is -3.54 ± 0.17 and the “self-splicing fitness (ln)” value (37 °C) is -3.45 ± 0.3.
For ACGGAGCAAUAUUACGUGAC, the “self-splicing fitness (ln)” value runs as follows: (30 °C) -2.68 ± 0.28; (37 °C) -2.16 ± 0.42.
For UCAAAGCAAUAUUACGUUUC the same measures were -4.09 ± 0.26 and -3.15 ± 0.2.
The corresponding values for UUAUAGCAAUAUUACGGGGA are -1.89 ± 0.13 and -1.38 ± 0.15.
With UCGCAGCAAUAUUACGCUCC, the “self-splicing fitness (ln)” value (30 °C) was -2.9 ± 0.46.
On to CGGCAGCAAUAUUACGCCAG, for which, under “30 °C”, the “self-splicing fitness (ln)” value was -1.53 ± 0.21.
For the sequence UCGAAGCAAUAUUACGUACU, the “self-splicing fitness (ln)” value is, setting by setting: (30 °C) -2.88 ± 0.1; (37 °C) -1.67 ± 0.12.

The values above are taken from the supplement of paper PMC7877785.
